Test results published in publication PMC8418782 (Molecular cell, 2021).

Legend:
[1] = biological target: T1, human Hsp90α (human, UniProt P07900 1-732); test: SEC-MALS
[2] = biological target: T1, human Hsp90α; test: SEC-MALS; remark: listed apart in the source

Binder	stoichiometry N [1]	binding result [2]
human p23 (natural protein) MQPASAKWYDRRDYVFIEFCVEDSKDVNVNFEKSKLTFSCLGGSDNFKHLNEIDLFHCIDPNDSKHKRTDRSILCCLRKGESGQSWPRLTKERAKLNWLSVDFNNWKDWEDDSDEDMSNFDRFSEMMNNMGGDEDVDLPEVDGADDDSQDSDDEKMPDLE	~0.5 p23 per Hsp90 chain (Hsp90:FKBP51:p23 2:1:1)	
FKBP51 N402K (natural protein, human, UniProt Q13451 1-457, looked up) MTTDEGAKNNEESPTATVAEQGEDITSKKDRGVLKIVKRVGNGEETPMIGDKVYVHYKGKLSNGKKFDSSHDRNEPFVFSLGKGQVIKAWDIGVATMKKGEICHLLCKPEYAYGSAGSLPKIPSNATLFFEIELLDFKGEDLFEDGGIIRRTKRKGEGYSNPNEGATVEIHLEGRCGGRMFDCRDVAFTVGEGEDHDIPIGIDKALEKMQREEQCILYLGPRYGFGEAGKPKFGIEPNAELIYEVTLKSFEKAKESWEMDTKEKLEQAAIVKEKGTVYFKGGKYMQAVIQYGKIVSWLEMEYGLSEKESKASESFLLAAFLNLAMCYLKLREYTKAVECCDKALGLDSANEKGLYRRGEAQLLMNEFESAKGDFEKVLEVNPQNKAARLQISMCQKKAKEHKERDRRIYANMFKKFAEQDAKEEANKAMGKKTSEGVTNEKGTDSQAMEEEKPEGHV		binds
FKBP51 ΔH7e (Δ401–457) (domain or fragment, human, UniProt Q13451 1-400, looked up) MTTDEGAKNNEESPTATVAEQGEDITSKKDRGVLKIVKRVGNGEETPMIGDKVYVHYKGKLSNGKKFDSSHDRNEPFVFSLGKGQVIKAWDIGVATMKKGEICHLLCKPEYAYGSAGSLPKIPSNATLFFEIELLDFKGEDLFEDGGIIRRTKRKGEGYSNPNEGATVEIHLEGRCGGRMFDCRDVAFTVGEGEDHDIPIGIDKALEKMQREEQCILYLGPRYGFGEAGKPKFGIEPNAELIYEVTLKSFEKAKESWEMDTKEKLEQAAIVKEKGTVYFKGGKYMQAVIQYGKIVSWLEMEYGLSEKESKASESFLLAAFLNLAMCYLKLREYTKAVECCDKALGLDSANEKGLYRRGEAQLLMNEFESAKGDFEKVLEVNPQNKAARLQISMCQKKAKE		binds
